{
  "source": "paper doi:10.1101/2021.07.15.452465",
  "about": "(2021)",
  "binders": {"B1": {"name": "A. fumigatus CBC consisting of the subunits HapB^230-299, HapC^40-137 and HapE^47-164 (complex)", "chain 1": "not shown", "chain 2": "KEQDRWLPIANVARIMKLALPENAKIAKEAKECMQECVSEFISFITSEASEKCQQEKRKTVNGEDILFAMTSLGFENYAEALKIYLSKYRETQSARGE", "chain 3": "GTWANVNQGLQGTARDILTTYWQHIINHLESDNHDYKIHQLPLARIKKVMKADPEVKMISAEAPILFAKGCDIFITELTMRAWIHAEDNKRRTLQRSDIAAALSKSDMFDFLIDIVPR"}, "B2": {"name": "A. fumigatus HapX^24-158 wild type (domain or fragment)", "chain": "SPSPGPGTPGSITSKEWVIPPRPKPGRKPATDTPPTKRKAQNRAAQRAFRERRAARVNELEEQIKKIEDEHEIHIAAFKEQITNLSREVEQCRSEMTWWRDRCHALEKEVSVERSAKEAIVKEFRSSLSDREAVR"}},
  "key": {"[1]": {"target": "A. fumigatus HapX^24-158 K38E (Aspergillus fumigatus, UniProt Q4WER3 24-158, K38E)", "experiment": "SPR; CBC preformed on AfucccA 37 bp DNA"}, "[2]": {"target": "A. fumigatus HapX^24-158 W40A (Aspergillus fumigatus, UniProt Q4WER3 24-158, W40A)", "experiment": "SPR; CBC preformed on AfucccA 37 bp DNA"}, "[3]": {"target": "A. fumigatus HapX^24-158 R45A (Aspergillus fumigatus, UniProt Q4WER3 24-158, R45A)", "experiment": "SPR; CBC preformed on AfucccA 37 bp DNA"}, "[4]": {"target": "T1, A. fumigatus HapX^24-158 ΔT36-I42 (Aspergillus fumigatus, UniProt Q4WER3 24-158, ΔT36-I42)", "experiment": "SPR; CBC preformed on Afucyp51A 37 bp DNA"}, "[5]": {"target": "A. fumigatus HapX^24-158 R50A (Aspergillus fumigatus, UniProt Q4WER3 24-158, R50A)", "experiment": "SPR; CBC preformed on AfucccA 37 bp DNA"}, "[6]": {"target": "T1, A. fumigatus HapX^24-158 ΔT36-I42", "experiment": "SPR; CBC preformed on AfucccA 37 bp DNA"}, "[7]": {"target": "B1", "experiment": "SPR"}, "[8]": {"target": "B1", "experiment": "SPR", "remark": "listed apart in the source"}, "[9]": {"target": "B1", "experiment": "SPR", "remark": "listed apart in the source"}, "[10]": {"target": "B1", "experiment": "SPR", "remark": "listed apart in the source"}},
  "note": "Read-outs that look alike come from different tables or passages of the source.",
  "data": [
    {"binder": "B1", "values": [
      {"measurement": "Kd", "setting": "[1]", "value": 3.76, "unit": "nM"},
      {"measurement": "Kd", "setting": "[2]", "value": 13.2, "unit": "nM"},
      {"measurement": "Kd", "setting": "[3]", "value": 2.86, "unit": "nM"},
      {"measurement": "Kd", "setting": "[4]", "value": 511, "unit": "nM"},
      {"measurement": "Kd", "setting": "[5]", "value": 3.93, "unit": "nM"},
      {"measurement": "Kd", "setting": "[6]", "value": 136, "unit": "nM"}
    ]},
    {"binder": "B2", "values": [
      {"measurement": "Kd", "setting": "[7]", "value": 0.9, "unit": "nM"},
      {"measurement": "Kd", "setting": "[8]", "value": 22.7, "unit": "nM"},
      {"measurement": "Kd", "setting": "[9]", "value": 0.34, "unit": "nM"},
      {"measurement": "Kd", "setting": "[10]", "value": 28.3, "unit": "nM"}
    ]}
  ]
}
